Assay results reported in patent publication US20080058263A1 (published 2008).
Residue numbers refer to the chain shown, from its start.

T1: VEGFR-3-Fc (UniProt P35916 25-328)
T1 construct: domain: first three Ig domains; conditioned supernatant of 293T cells; also called VEGFR-3-Fc fusion protein; not shown: Fc fragment of the pIg vector
T1 sequence (looked up): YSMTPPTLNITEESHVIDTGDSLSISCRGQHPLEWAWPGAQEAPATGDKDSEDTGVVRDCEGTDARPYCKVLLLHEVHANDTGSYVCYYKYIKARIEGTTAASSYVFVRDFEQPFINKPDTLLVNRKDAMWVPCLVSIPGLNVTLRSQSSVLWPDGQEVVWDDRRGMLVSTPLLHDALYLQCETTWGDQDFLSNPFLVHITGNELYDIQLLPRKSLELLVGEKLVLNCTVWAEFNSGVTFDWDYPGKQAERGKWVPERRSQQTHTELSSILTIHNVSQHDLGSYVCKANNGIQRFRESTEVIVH

B1: 73-9 (ligand)
chain: GQNHHEVVKSIDNEWRKTQCMPREVCIDVGKEYPDEIEYIFKPPCVSVYRCGGCCNDEGLECVPTEESNITMQIMRITVPLSQGPKPVTISFLQHNKCECRPKKD
B2: 23-9 (ligand)
chain: B1 chain with G1A, Q2H, N3Y, H4N, H5T, V7I, V8L
B3: 33-9 (ligand)
chain: B1 chain with R23I, V25T, C26L, I27V, V29I, G30F, K31Q
B4: 21-9 (ligand)
chain: AHYNTEILKSIDNEWRKTQCMPREVCIDVGKEYPDEIEYIFKPSCVPLMRCGGCCNDEGLECVPTEESNITMQIMRITVPLSQGPKPVTISFLQHNKCECRPKKD
B5: 72-11 (ligand)
chain: B1 chain with Y33F, P34G, D35V, E36A, I37T, E38N, Y39T, I40F, D57S, E61Q
B6: 74-9 (ligand)
chain: GQNHHEVVKSIDNEWRKTQCMPREVCIDVGKEFGVATNTFFKPSCVPLMRCGGCCNDEGLECVPTEESNITMQIMRITVPLSQGPKPVTISFLQHNKCECRPKKD
B7: 73-11 (ligand)
chain: B1 chain with D57S, E61Q
B8: 73-13 (ligand)
chain: B1 chain with L93A, Q94N, N96T, K97S, E99R, R101M, P102S, K104L
B9: 33-1 (ligand)
chain: GQNHHEVVKSIDNEWRKTQCMPIETLVDIFQEYPDEIEYIFKPPCVSVYRCGGCCNDEGLECVPTEESNITMQIMRIKPHQGQHIGEMSFLQHNKCECRPKKD
B10: 33-3 (ligand)
chain: B9 chain with D57S, E61Q
B11: 74-14 (ligand)
chain: GQNHHEVVKSIDNEWRKTQCMPREVCIDVGKEFGVATNTFFKPSCVPLMRCGGCCNDEGLECMNTSTSYLSKTLFEITVPLSQGPKPVTISFANHTSCRCMSKLD
B12: 23-14 (ligand)
chain: AHYNTEILKSIDNEWRKTQCMPREVCIDVGKEYPDEIEYIFKPPCVSVYRCGGCCNDEGLECMNTSTSYLSKTLFEITVPLSQGPKPVTISFANHTSCRCMSKLD
B13: 21-10 (ligand)
chain: AHYNTEILKSIDNEWRKTQCMPREVCIDVGKEYPDEIEYIFKPSCVPLMRCGGCCNDEGLECMNTSTSYLSKTLFEITVPLSQGPKPVTISFLQHNKCECRPKKD
B14: 73-14 (ligand)
chain: B12 chain with A1G, H2Q, Y3N, N4H, T5H, I7V, L8V
B15: 51-14 (ligand)
chain: AHYNTEILKSIDNEWRKTQCMPIETLVDIFQEYPDEIEYIFKPSCVPLMRCGGCCNDEGLECMNTSTSYLSKTLFEITVPLSQGPKPVTISFANHTSCRCMSKLD
B16: 73-16 (ligand)
chain: B12 chain with A1G, H2Q, Y3N, N4H, T5H, I7V, L8V, D57S, E61Q
B17: 53-14 (ligand)
chain: B15 chain with S44P, P47S, L48V, M49Y
B18: 21-16 (ligand)
chain: B12 chain with P44S, S47P, V48L, Y49M, D57S, E61Q
B19: 71-14 (ligand)
chain: B11 chain with F33Y, G34P, V35D, A36E, T37I, N38E, T39Y, F40I
B20: 23-10 (ligand)
chain: B13 chain with S44P, P47S, L48V, M49Y
notes: clone entry
B21: 23-12 (ligand)
chain: B13 chain with S44P, P47S, L48V, M49Y, D57S, E61Q
B22: 53-16 (ligand)
chain: B15 chain with S44P, P47S, L48V, M49Y, D57S, E61Q
B23: 41-3 (ligand)
chain: AHYNTEILKFMDVYQRSYCHPREVCIDVGKEYPDEIEYIFKPSCVPLMRCGGCCNSEGLQCVPTEESNITMQIMRIKPHQGQHIGEMSFLQHNKCECRPKKD
B24: 43-1 (ligand)
chain: B23 chain with S43P, P46S, L47V, M48Y, S56D, Q60E
B25: 41-5 (ligand)
chain: B23 chain with S56D, Q60E, L90A, Q91N, N93T, K94S, E96R, R98M, P99S, K101L
B26: 42-3 (ligand)
chain: AHYNTEILKFMDVYQRSYCHPREVCIDVGKEFGVATNTFFKPPCVSVYRCGGCCNSEGLQCVPTEESNITMQIMRIKPHQGQHIGEMSFLQHNKCECRPKKD
B27: 43-3 (ligand)
chain: B23 chain with S43P, P46S, L47V, M48Y
B28: 41-1 (ligand)
chain: B23 chain with S56D, Q60E

Target: T1, VEGFR-3-Fc
Assay: receptor-Fc IP
Protocol: (§1) The binding assay procedure was identical to the immunoprecipitation using pentahistidine antibody described in Example 2, apart from the composition of the immunoprecipitation (IP) mixes. The IP mixes used for the receptor binding analysis were as follows: For VEGFR-1 binding assays, the IP mix was phosphate buffered saline (PBS) containing 1.5% BSA, 0.06% Tween 20, 3 μg/ml heparin and 400 ng/ml VEGFR-1-Fc fusion protein (100 μl of this IP mix was added to 200 μl of sample supernatant); for VEGFR-2 binding assays, the IP mix was 82% conditioned cell supernatant from 293T cells transiently expressing VEGFR-2-Fc fusion protein in mixture with 18% of a PBS solution that contained 5% BSA, 0.2% Tween 20, and 10 μg/ml heparin (250 μl of IP mix was added to 200 μl of sample supernatant); and for VEGFR-3 binding assays, the IP mix was 82% conditioned cell supernatant from 293T cells transiently expressing VEGFR-3-Fc fusion protein, 18% of PBS containing 5% BSA, 0.2% Tween 20, and 10 μg/ml heparin (250 μl of IP mix was added to 200 μl of sample supernatant).

Binding result, no binding:
B1
B2
B3
B4
B5
B6
B7
B8
B9
B10
B11
B12
B13
B14
B15
B16
B17
B18
B19
B20
B21
B22
B23
B24
B25
B26
B27
B28

Target: T2, VEGFR-1-Fc (UniProt P17948 27-338)
T2 construct: domain: first three Ig domains; expressed in Drosophila S2 cells, purified on Protein A sepharose; also called VEGFR-1-Fc fusion protein; not shown: Fc fragment from the Signal-pIgPlus vector
Assay: receptor-Fc IP
Protocol: as §1

T2 sequence (P17948 27-338): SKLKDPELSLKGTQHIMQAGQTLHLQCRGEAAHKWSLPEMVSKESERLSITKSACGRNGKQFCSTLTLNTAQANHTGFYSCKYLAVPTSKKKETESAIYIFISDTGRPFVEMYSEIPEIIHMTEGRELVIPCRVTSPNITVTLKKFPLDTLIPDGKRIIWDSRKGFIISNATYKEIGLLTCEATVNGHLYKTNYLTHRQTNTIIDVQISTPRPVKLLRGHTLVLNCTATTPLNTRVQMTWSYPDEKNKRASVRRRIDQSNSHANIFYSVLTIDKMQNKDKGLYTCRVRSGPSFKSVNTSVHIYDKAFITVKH

Binding result, no binding:
B1
B2
B3
B4
B5
B6
B7
B8
B9
B10
B11
B12
B13
B14
B15
B16
B17
B18
B19
B20
B21
B22
B23
B25
B26
B27

Binding result, binds:
B24
B28

Target: T3, VEGFR-2-Fc (UniProt P35968 20-322)
T3 construct: domain: first 3 Ig domains; conditioned supernatant of 293T cells; also called VEGFR-2-Fc fusion protein; not shown: Fc fragment of the pIg vector
Assay: receptor-Fc IP
Protocol: as §1

T3 sequence (P35968 20-322): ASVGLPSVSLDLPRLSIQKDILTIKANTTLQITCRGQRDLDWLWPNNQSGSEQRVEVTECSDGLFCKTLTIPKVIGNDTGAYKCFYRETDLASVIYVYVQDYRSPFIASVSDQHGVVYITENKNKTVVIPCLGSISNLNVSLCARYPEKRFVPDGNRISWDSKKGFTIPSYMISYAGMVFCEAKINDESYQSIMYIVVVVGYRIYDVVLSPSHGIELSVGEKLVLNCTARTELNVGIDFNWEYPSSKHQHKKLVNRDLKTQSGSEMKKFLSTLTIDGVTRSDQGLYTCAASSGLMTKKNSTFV

Binding result, binds:
B3
B9
B10
B12
B20
B21

Binding result, no binding:
B1
B2
B4
B5
B6
B7
B8
B11
B13
B14
B15
B16
B17
B18
B19
B22
B23
B24
B25
B26
B27
B28
